Assay results taken from US20060068386A1, “Complete genome and protein sequence of the hyperthermophile methanopyrus kandleri av19 and monophyly of archael methanogens and methods of use thereof” (priority 2002, published 2006).

How the values were obtained:
[1] = molecular target: T1, M. kandleri AV19 DNA polymerase family B (Mka PolB) (MK1039) (Methanopyrus kandleri AV19); test: cell-based or functional assay
T1 chain: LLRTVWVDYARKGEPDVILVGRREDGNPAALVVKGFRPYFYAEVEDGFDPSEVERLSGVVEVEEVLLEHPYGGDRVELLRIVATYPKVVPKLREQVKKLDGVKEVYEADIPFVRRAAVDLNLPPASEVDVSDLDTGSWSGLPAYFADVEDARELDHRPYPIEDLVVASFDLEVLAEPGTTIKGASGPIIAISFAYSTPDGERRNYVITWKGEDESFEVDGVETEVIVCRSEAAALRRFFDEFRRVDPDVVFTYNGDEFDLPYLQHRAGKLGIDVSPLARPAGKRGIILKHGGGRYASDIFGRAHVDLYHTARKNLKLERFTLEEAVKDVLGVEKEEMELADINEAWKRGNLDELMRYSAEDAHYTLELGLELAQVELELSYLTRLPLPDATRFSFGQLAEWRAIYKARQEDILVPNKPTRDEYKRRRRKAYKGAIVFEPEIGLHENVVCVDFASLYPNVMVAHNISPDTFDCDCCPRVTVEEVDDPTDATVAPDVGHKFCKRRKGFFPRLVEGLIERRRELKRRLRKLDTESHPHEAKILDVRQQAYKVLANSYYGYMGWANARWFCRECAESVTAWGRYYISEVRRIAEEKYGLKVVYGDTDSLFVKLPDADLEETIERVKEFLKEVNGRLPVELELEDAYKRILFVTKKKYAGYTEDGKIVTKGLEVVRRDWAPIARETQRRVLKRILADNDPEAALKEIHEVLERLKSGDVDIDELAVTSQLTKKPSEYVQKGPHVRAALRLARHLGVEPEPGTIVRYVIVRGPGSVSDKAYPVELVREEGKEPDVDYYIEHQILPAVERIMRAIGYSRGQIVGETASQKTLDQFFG

M.K. polB DNA polymerase = M.K. polB DNA polymerase (Methanopyrus kandleri, UniProt Q8TWJ5); test: Effects of media components on M.K. polB DNA polymerase activity (primer extension); assay type: biochemical
Protocol: DNA polymerase reaction mixtures (15-20 μl) contained dATP, dTTP, dCTP, and dGTP (1 mM each), 4.5 mM MgCl2, detergents Tween 20 and Nonidet P-40 (0.2% each), fixed concentrations of PTJ—duplex, other additions, as indicated, and appropriate amounts of polB in 30 mM Tris-HCl buffer pH 8.0 (25° C.). The background reaction mixtures contained all components except DNA polymerases. Primer extensions were carried out for a preset time at 75° C. in PTC-150 Minicycler (MJ Research, Inc.; Waltham, Mass.). 5 μl samples were removed and chilled to 4° C. followed by immediate addition of 20 μl of 20 mM EDTA. The samples were desalted by centrifugation through Sephadex G-50 spun columns, diluted, and analyzed on a ABI Prism 377 DNA sequencer (Applied BioSystems; Foster City, Calif.). For each sample, raw data were extracted from the sequencer trace files with the program Chromas 1.5 (Technelysium Pty Ltd., Australia), and the fluorescent signals were analyzed by our nonlinear regression data analysis programs written in Fortran. The programs applied Powell algorithms to approximate the signals by a number of Gaussian peaks and calculate integral fluorescent intensities for each product peak. The total amount of fluorescent products for each time of incubation was determined, and the initial rates of extension were calculated.
The next two tables (Table 4 and 5) display effects of various media components on M.K. polB DNA polymerase activity. Initial rates of primer extension reaction were measured as described by Pavlov et al., 2002.

PolB = test: Interaction of polB with PCNA (primer extension assay); assay type: biochemical, Methanopyrus kandleri; details: PCNA 5.6 μM subunits, 100 mM NaCl
Protocol: PolB was incubated with PCNA (final concentration 5.6 μM subunits) in the presence of 100 mM NaCl. The polymerase activity was measured in the primer extension assay and compared to the activity without PCNA added. Even without clamp loader, the interaction of PCNA with PolB was detected as the initial rate of the primer extension increased 1.75 times. […] This happens, most likely because PCNA anchors polB on the PTJ and/or prevents partial melting of the PTJ duplex.

M.K. polB DNA polymerase, sequence (Q8TWJ5 entry or part of it): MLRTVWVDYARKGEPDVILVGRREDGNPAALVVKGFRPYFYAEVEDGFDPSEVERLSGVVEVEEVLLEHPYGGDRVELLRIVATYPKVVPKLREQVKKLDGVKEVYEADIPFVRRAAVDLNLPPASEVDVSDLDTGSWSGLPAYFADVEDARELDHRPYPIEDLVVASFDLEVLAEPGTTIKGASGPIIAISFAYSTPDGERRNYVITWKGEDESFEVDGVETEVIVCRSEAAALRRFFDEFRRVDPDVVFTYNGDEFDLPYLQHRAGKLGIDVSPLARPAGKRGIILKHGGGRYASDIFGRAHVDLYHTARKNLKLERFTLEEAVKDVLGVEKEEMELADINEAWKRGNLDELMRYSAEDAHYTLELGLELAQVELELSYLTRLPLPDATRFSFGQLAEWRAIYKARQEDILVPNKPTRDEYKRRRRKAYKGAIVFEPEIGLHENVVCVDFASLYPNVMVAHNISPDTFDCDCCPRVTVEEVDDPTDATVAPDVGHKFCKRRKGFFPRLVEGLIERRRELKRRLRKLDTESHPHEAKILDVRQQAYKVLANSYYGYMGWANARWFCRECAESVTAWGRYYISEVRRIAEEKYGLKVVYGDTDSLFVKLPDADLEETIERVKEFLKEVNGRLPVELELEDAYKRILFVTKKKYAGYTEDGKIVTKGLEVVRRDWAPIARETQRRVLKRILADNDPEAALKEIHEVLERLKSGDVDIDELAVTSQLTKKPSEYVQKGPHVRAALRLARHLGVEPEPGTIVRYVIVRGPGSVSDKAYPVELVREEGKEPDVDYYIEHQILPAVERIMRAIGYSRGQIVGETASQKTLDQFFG

B1: M. kandleri AV19 PCNA (MK1030), DNA polymerase sliding clamp (other)
chain: LVEFRAYQEEARYFKYAFNAAGKVVEEAPLIVTENGIVSRAMDASHIAMAVLEMPWEMFDEYEPPSDELMYGLDMEEVTRIVRRARVTDEITLEGEDEEEVIIKLGSSGYEREFRLRSIDIDDIPDEPELDFAVEVTVVPDFIQDAVRDADLVSDTVKVGAKGNTFYFKAEGERGRVIPKVQEGAEALLTFEVEEDVETAYPLDYLKDMIQAAQGAESVRIRLGQDMPLELTFRIGPAGEGKLTFYLAPRVEE
initial rate of the primer extension [1]: 1.75 fold | effect on polymerase activity of PolB (M.K. polB DNA polymerase): increase | effect on hydrolysis of the primer annealed to the duplex (PolB): suppression of hydrolysis of the primer
